Results published in patent US12649776B2, “Scaffold proteins and therapeutic nanoconjugates based on nidogen” (UNIVERSITAT AUTÒNOMA DE BARCELONA, priority 2019, dated 2026).

Key:
[1] = literature value; cited from earlier work
[2] = Volume size distribution of protein nanoparticles and nanoconjugates by Dynamic Light Scattering (DLS); assay type: physicochemical; settings: self-assembled material in storage (carbonate) buffer
Procedure: Volume size distribution of all protein nanoparticles and nanoconjugates were determined by Dynamic Light Scattering (DLS) at 633 nm in a Zetasizer Nano ZS (Malvern Instruments) in triplicate.
Volume size distribution of protein nanoparticles was determined in a Zetasizer Nano ZS (Malvern Instruments) by Dynamic Light Scattering (DLS) at 633 nm in triplicates.
The integrity of the recombinant proteins was checked by mass spectrometry (MALDI-TOF), TGX (Tris-Glycine eXtended) Stain-Free acrylamide gels electrophoresis (BioRad) and Western Blot analysis using anti-His monoclonal antibody (1:1000; Santa Cruz, ref. 57598). Protein concentration was determined by Bradford (Biorad) assay with an Albumin (Roche) standard curve. GFP fluorescence emission (510 nm) was determined on purified proteins with a Cary Eclipse fluorescence spectrophotometer (Agilent Technologies) using an excitation wavelength of 450 nm. The volume and size distribution of nanoparticles were measured by dynamic light scattering (DLS) at 633 nm through a Zetasizer Nano ZS (Malvern Instruments) using quartz cuvettes.

CXCR4+ HeLa cells = assay: Protein internalization of EPIX4 / T22 / biparatopic nanoparticles (flow cytometry, AMD3100 competition, confocal); assay type: cell-based, human; settings: 1 μM
Procedure: (§1) Experiments were performed in CXCR4+ cervical and colorectal cell lines (HeLa and SW1417, respectively). HeLa cells were cultured in Eagle's Minimum Essential Medium (Gibco) and SW1417 in Dulbecco's Modified Eagle's Medium (Gibco). Both cell lines were supplemented with 10% fetal bovine serum (Gibco) and incubated in a humidified atmosphere at 37° C. and 5% (HeLa) or 10% (SW1417) of CO2.
(§2) For testing protein internalization, cells were seeded in 24-well plates (Nunc) (30000 cells wells^−1) for 24 h. Briefly, the medium was removed, and cells were washed with PBS. Then protein was incubated at 1 and 2 μM, diluted in OptiPro medium supplemented with L-Glutamine and incubated at different times, at suitable cell line conditions. Then, harsh trypsin digestion (1 mg ml^−1 for 15 min) (Gibco) was carried out to remove protein particles bound to the outer size of the cell membranes. Intracellular green fluorescence was analyzed by flow cytometry on an FACS-Calibur system (Becton Dickinson) using a 15 mW air-cooled argon ion laser at 488 nm excitation. Fluorescence emission was measured with a D detector (530/30 nm band pass filter), and manually corrected by the specific fluorescence of purified protein, to get data representative of the amount of internalized protein for comparative purposes. […]

CXCR4+ SW1417 cells = assay: Protein internalization of EPIX4 / T22 / biparatopic nanoparticles (flow cytometry); assay type: cell-based, human; settings: 1 μM
Procedure: as §1, §2

Row | Substance | Tm [1] [° C.^] | Tonset, 1 [1] [°C] | Nanoparticle size (volume size distribution, DLS) [2] [nm] | Time course of cell uptake (CXCR4+ HeLa cells) | Time course of cell uptake (CXCR4+ SW1417 cells)
1 | Human Collagen Type I: human collagen type I, literature comparator (Leikina et al) | 40.3 | 38.2 | – | – | –
2 | T22-GFP-H6: Modular protein: T22 ligand, Green Fluorescent Protein scaffold, C-terminal poly-histidine [reference compound] | – | 75 | ~11 | high uptake at short times | high uptake at short times
